Assay [1] has as its target human c-Met (HGFR), full length, on the cell surface (human) (UniProt P08581). The assay is described as follows: cell-based or functional assay.
Assay [2] deals with T1, human c-Met (HGFR), full length, on the cell surface (human, UniProt P08581 25-1390).
T1 construct: Endogenous c-Met on human tumor cell lines MKN45, NCI-H596, PC-3 and HepG2; also called hepatocyte growth factor receptor; mesenchymal-epithelial transition factor
Briefly: flow cytometry, MKN45 cells, without HGF. The method, then: (§1) Cellular binding of the in total 75 humanized anti-c-Met antibodies (originating from the three selected chimeric antibodies) was studied in human c-Met-positive tumor cell lines MKN45, NCI-H596 and PC-3, rhesus c-Met-positive tumor cell line 4 MBr-5, and human c-Met-negative tumor cell line MDA-MB-175-VII. Cells were used around 90% of confluence at the time of an assay, detached with Trypsin-Versene (EDTA) (Lonza) for 5-10 minutes, washed and adjusted to a concentration of 1×10⁶ cells/mL in ice-cold FACS buffer (PBS 1×, 0.1% v/w BSA, 0.02% v/v sodium azide (NaN₃)). Staining was performed in 96-well round-bottomed microtiter plates using ice-cold reagents/solutions at 4° C. to prevent the modulation and internalization of surface antigens. 100,000 cells/well were added to 96-well plates (100 μL/well) and centrifuged at 300×g for 3 minutes. In case of pre-incubation with HGF, the cells were resuspended in 50 ng/mL recombinant human HGF in FACS buffer (50 μL/well) and incubated for 30 minutes at 4° C., followed by two wash steps with 150 μL FACS buffer. Supernatant was discarded and cells were stained for 30 minutes with 50 μL of each antibody. Serial dilutions were made in ice-cold FACS buffer. Cells were washed twice by centrifugation at 300×g for 3 minutes and resuspended in 50 μL 6000-times diluted secondary F(ab′)₂ goat anti-human IgG (Fc fragment specific) antibody APC-conjugated (Jackson ImmunoResearch). Following a 30-minute incubation on ice, cells were washed again 2 times and resuspended in 150 μL ice-cold FACS buffer for FACS analysis. For analysis of the data, the Median Fluorescence Intensity (MFI) values were obtained.

Assay [3] addresses T1, human c-Met (HGFR), full length, on the …. Briefly: flow cytometry, PC-3 cells pre-incubated with 50 ng/mL HGF. The procedure: as §1
Assay [4] shares this target. Briefly: flow cytometry, PC-3 cells, without HGF. The procedure: as §1
(In general: A flow cytometer gives signals particle by particle.)

The target is the same in assay [5]. Briefly: flow cytometry, PC-3 cells; EC50 with 50 ng/mL HGF against EC50 without HGF. The procedure: as §1
For assay [6], the target named is T2, rhesus c-Met on 4MBr-5 cells (rhesus, UniProt F7H1K4 25-1381, Natural c-Met is cleaved at the furin site (KRKKR/S) into disulphide-linked alpha and beta subunits; given here as one mature polypeptide.).
T2 construct: also called rhesus c-Met antigen
The assay is described as follows: flow cytometry, 4MBr-5 cells pre-incubated with 50 ng/mL HGF. The method, then:
as §1

The target in assay [7] is T2, rhesus c-Met on 4MBr-5 cells. The assay is described as follows: flow cytometry, 4MBr-5 cells, without HGF. The method, then: as §1
The target is the same in assay [8]. Briefly: flow cytometry, 4MBr-5 cells; EC50 with 50 ng/mL HGF against EC50 without HGF. The procedure:
as §1

For assay [9], the target named is T1, human c-Met (HGFR), full length, on the …. The assay is described as follows: flow cytometry, NCI-H596 cells; EC50 with 50 ng/mL HGF against EC50 without HGF. The procedure:
as §1

The target is the same in assay [10]. The assay is described as follows: flow cytometry, NCI-H596 cells, without HGF. The method, then: as §1
Assay [11] shares this target. The assay is described as follows: flow cytometry, NCI-H596 cells pre-incubated with 50 ng/mL HGF. The procedure:
as §1

Assay [12] shares this target. The assay is described as follows: cell-based or functional assay.

The source of these data is patent US20240376214A1, “ANTI-C-MET ANTIBODIES AND ANTIBODY-DRUG CONJUGATES” (BYONDIS B.V., priority 2021, published 2024).

Where only a bound is given, the exact number is not on record here.

For orientation: EC50 means the concentration at which the effect is half-maximal. A higher EC50 goes with a need for much substance.

T2 sequence (F7H1K4 entry or part of it limits assumed): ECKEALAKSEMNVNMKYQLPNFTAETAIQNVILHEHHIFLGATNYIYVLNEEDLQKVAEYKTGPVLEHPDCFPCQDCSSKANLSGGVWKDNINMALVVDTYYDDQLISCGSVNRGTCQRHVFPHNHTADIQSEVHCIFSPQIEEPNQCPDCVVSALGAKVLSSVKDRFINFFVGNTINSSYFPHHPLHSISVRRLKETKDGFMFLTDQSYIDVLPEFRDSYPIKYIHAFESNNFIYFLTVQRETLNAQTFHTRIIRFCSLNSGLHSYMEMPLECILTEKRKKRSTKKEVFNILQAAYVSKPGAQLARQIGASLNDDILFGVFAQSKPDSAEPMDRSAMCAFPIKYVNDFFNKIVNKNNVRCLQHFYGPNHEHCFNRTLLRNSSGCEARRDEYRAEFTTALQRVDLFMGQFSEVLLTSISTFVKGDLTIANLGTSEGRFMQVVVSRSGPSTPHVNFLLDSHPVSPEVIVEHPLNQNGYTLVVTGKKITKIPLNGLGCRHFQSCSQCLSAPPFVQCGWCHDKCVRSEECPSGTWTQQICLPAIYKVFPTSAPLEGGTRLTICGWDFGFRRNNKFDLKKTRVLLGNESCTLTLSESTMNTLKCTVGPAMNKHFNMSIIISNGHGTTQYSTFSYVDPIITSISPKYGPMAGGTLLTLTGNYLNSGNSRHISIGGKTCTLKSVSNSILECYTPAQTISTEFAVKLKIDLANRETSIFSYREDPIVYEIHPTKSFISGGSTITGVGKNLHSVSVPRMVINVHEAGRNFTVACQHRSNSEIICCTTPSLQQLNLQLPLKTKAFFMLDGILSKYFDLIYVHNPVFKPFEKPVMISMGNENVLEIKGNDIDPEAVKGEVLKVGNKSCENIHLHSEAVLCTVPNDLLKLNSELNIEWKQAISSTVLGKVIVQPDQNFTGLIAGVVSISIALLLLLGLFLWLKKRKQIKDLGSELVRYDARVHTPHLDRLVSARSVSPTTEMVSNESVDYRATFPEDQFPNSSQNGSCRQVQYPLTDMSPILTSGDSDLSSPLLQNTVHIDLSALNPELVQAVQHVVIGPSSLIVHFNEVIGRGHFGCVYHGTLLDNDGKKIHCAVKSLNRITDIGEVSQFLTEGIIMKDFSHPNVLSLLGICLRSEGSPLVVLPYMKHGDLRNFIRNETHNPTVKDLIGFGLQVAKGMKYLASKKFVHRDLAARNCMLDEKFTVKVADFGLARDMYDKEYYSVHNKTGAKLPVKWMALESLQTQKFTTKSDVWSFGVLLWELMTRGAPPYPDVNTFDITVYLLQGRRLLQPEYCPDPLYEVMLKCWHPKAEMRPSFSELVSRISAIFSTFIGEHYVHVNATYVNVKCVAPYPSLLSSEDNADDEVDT
T1 sequence (P08581 25-1390 limits assumed): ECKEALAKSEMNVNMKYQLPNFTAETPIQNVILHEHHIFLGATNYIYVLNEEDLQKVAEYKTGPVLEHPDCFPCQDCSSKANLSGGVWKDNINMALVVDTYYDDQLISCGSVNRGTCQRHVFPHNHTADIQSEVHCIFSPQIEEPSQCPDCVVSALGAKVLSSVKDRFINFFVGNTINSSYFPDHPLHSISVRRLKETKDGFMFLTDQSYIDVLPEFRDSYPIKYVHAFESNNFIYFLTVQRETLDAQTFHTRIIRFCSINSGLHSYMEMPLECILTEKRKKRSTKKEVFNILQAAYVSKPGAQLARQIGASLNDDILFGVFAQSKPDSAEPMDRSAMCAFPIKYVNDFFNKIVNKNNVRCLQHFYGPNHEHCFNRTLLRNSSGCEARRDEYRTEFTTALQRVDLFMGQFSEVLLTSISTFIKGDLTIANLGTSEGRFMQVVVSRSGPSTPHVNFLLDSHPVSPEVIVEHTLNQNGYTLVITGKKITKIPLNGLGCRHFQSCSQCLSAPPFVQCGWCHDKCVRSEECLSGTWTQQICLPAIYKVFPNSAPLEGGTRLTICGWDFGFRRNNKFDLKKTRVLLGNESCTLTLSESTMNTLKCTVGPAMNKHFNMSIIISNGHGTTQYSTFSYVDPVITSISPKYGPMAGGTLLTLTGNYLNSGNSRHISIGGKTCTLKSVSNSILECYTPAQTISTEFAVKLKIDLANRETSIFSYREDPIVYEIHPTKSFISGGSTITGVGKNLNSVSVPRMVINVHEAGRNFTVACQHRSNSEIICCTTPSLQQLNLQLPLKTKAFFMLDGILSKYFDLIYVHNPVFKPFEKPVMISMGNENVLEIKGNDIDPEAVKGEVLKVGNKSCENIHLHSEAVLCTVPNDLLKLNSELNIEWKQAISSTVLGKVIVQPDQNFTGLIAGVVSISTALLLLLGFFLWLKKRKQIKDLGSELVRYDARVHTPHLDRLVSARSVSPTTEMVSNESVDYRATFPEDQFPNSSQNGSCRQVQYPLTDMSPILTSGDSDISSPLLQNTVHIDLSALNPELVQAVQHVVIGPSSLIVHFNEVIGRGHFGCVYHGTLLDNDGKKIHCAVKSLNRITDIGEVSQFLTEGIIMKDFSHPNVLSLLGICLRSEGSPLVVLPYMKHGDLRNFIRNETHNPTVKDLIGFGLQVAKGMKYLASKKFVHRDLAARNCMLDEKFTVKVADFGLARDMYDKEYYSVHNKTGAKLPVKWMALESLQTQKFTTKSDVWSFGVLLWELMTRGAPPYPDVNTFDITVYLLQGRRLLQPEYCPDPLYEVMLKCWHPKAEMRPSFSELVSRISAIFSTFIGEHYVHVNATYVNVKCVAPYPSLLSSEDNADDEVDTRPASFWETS
Chain of human c-Met (HGFR), full length, on the cell surface (human) (P08581 25-1390 limits assumed): as above

In assay [1], “non-binding control ADC (rituximab-vc-seco-DUBA) (antibody)” came in with an Efficacy (%), in vitro cytotoxicity, MKN-45, -HGF of 0%; an Efficacy (%), in vitro cytotoxicity, NCI-H596, +HGF of 18%; an Efficacy (%), in vitro cytotoxicity, NCI-H596, -HGF of 7%; an Efficacy (%), in vitro cytotoxicity, PC-3, +HGF of 36%. In [1], the Efficacy (%), in vitro cytotoxicity, PC-3, -HGF was 36%; the IC50, in vitro cytotoxicity, MKN-45, -HGF was over 10 nM; the IC50, in vitro cytotoxicity, NCI-H596, +HGF was over 10 nM; the IC50, in vitro cytotoxicity, NCI-H596, -HGF is over 10 nM. In assay [1], this molecule had an IC50, in vitro cytotoxicity, PC-3, +HGF of over 10 nM and an IC50, in vitro cytotoxicity, PC-3, -HGF of over 10 nM.

B1: mAb3c (antibody, human IgG1, kappa, V domains shown)
VH: QVQLVQSGAEVKKPGASVKVSCKASGYTFTDYYLNWVRQACGQGLEWMGLIFPGNDKTEYSEKFKGRVTLTTDTSISTAYMELSSLTSDDTALYYCSGGDYGGFVYWGQGTLVTVSS
VL: DIQMTQSPSSLSASVGDRVTITCGASENIYGALNWYQQKPGKAPKLLIYGATNLADGVPSRFSGSGSGTDFTLTISSLQPEDVATYYCQNVLSSPLTFGSGTKLEIKR
notes: Humanized IgG1 kappa, HC-41C, from wt/41C-chi-mAb3; also called humanized HC-41C antibody mAb3c
With B1, the EC50 in [2] was 0.05 µg/mL; in [3] it was 0.06 µg/mL; in assay [4], 0.03 µg/mL; in assay [6], 0.03 µg/mL; in [7], 0.02 µg/mL; in [10] it was 0.02 µg/mL. Also, the concentration giving a half-maximal response (EC50) in assay [11] was 0.11 µg/mL. Further, the “Fold shift (HGF)” value amounted to 1.9 fold in assay [5], 1.7 fold in assay [8] and 5.5 fold in [9].

B2: mAb3e (antibody, human IgG1, kappa, V domains shown)
VH: QVQLQESGAEVKKPGASVKVSCKASGYTFTDYYLNWVRQACGQGLEWMGLIFPGNDKTEYSEKFKGRVTMTRDTSTSTVYMELSSLRSEDTAVYYCSGGDYGGFVYWGQGTLVTVSS
VL: DIQMTQSPSSLSASVGDRVTITCGASENIYGALNWYQQKPGKAPKLLIYGATNLADGVPSRFSGSGSGTDFTLTISSLQPEDVATYYCQNVLSSPLTFGSGTKLEIKR
notes: Humanized IgG1 kappa, HC-41C, from wt/41C-chi-mAb3; also called humanized HC-41C antibody mAb3e
Turning to B2, the EC50 is 0.07 µg/mL in assay [2]; 0.09 µg/mL in assay [3]; 0.03 µg/mL in assay [4]; 0.04 µg/mL in assay [6]; 0.03 µg/mL in [7]; 0.02 µg/mL in assay [10]. This molecule also showed a concentration for a half-maximal effect (EC50) in [11] of 0.14 µg/mL. Further, the entries for the “Fold shift (HGF)” value in [5], in assay [8] and in [9] were 2.8 fold, 1.4 fold and 7 fold, respectively.

B3: mAb3a (antibody, human IgG1, kappa, V domains shown)
VH: QVQLVQSGAEVKKPGASVKVSCKASGYTFTDYYLNWVRQACGQGLEWMGLIFPGNDKTEYSEKFKGRVTLTTDTSISTAYMELSSLTSDDTALYYCSGGDYGGFVYWGQGTLVTVSS
VL: DIQLTQSPSSLSASVGDRVTITCGASENIYGALNWYQQKPGKAPKLLIYGATNLADGVPSRFSGSGSGTDFTLTISSLQPEDFATYYCQNVLSSPLTFGPGTKVDIKR
notes: Humanized IgG1 kappa, HC-41C, from wt/41C-chi-mAb3; also called humanized HC-41C antibody mAb3a
As for B3, the EC50 in assay [2] worked out at 0.07 µg/mL; in [3] it was 0.07 µg/mL; in assay [4], 0.03 µg/mL; in assay [6] it was 0.03 µg/mL; in assay [7], 0.04 µg/mL; in [10], 0.02 µg/mL. In [11], this molecule gave an EC50 of 0.08 µg/mL. Further, the results for the “Fold shift (HGF)” value in assay [5], in assay [8] and in [9] were 2.4 fold, 0.8 fold and 4 fold, respectively.

B4: mAb2c (antibody, human IgG1, kappa, V domains shown)
VH: QVQLVQSGAEVKKPGSSVKVSCKASGYVFPDYEMHWVRQACGQGLEWMGAFDPETGDTTYNQNFKGRVTITADKSTSTAYMELSSLRSEDTAVYYCARDYKYLYYYAMDNWGQGTTVTVSS
VL: EIVLTQSPSLLSASIGDRVTIPCTASSSITSSYLHWYQQKPGKAPKLLIYSTTNLASGVPSRFSGSGSGTEFTLTISSLQPEDFATYYCHQYRRSPLTFGGGTKLEIKR
notes: Humanized IgG1 kappa, HC-41C, from wt/41C-chi-mAb2; also called humanized HC-41C antibody mAb2c
For the molecule B4, the EC50 is 0.11 µg/mL in assay [2]; 0.09 µg/mL in assay [3]; 0.03 µg/mL in assay [4]; 0.09 µg/mL in assay [6]; 0.07 µg/mL in assay [7]; 0.03 µg/mL in assay [10]. In [11], this molecule gave an EC50 of 0.1 µg/mL. The “Fold shift (HGF)” value in [5] came to 3.1 fold; in [8] it was 1.2 fold; in [9] it was 3.3 fold.

B5: mAb2a (antibody, human IgG1, kappa, V domains shown)
VH: QVQLVQSGAELRKPGSSVKVSCRASGYVFPDYEMHWVRQACGQGLEWMGAFDPETGDTTYNQNFKGRVTIAADKSTSTAYMELRSLRSEDTAIYYCARDYKYLYYYAMDNWGQGTMVTVSS
VL: EIVLTQSPSLLSASIGDRVTIPCTASSSITSSYLHWYQQKPGKAPKLLIYSTTNLASGVPSRFSGSGSGTEFTLTISSLQPEDFATYYCHQYRRSPLTFGGGTKLEIKR
notes: Humanized IgG1 kappa, HC-41C, from wt/41C-chi-mAb2; also called humanized HC-41C antibody mAb2a
On to B5, for which the EC50 in assay [2] came to 0.09 µg/mL; in [3], 0.09 µg/mL; in assay [4] it was 0.04 µg/mL; in [6] it was 0.09 µg/mL; in assay [7], 0.06 µg/mL; in assay [10], 0.02 µg/mL. In addition, the response in assay [11] was half-maximal at 0.08 µg/mL (EC50). Also, the entries for the “Fold shift (HGF)” value in assay [5], in assay [8] and in [9] were 2.3 fold, 1.4 fold and 4 fold, respectively.

B6: mAb1a (antibody, human IgG1, kappa, V domains shown)
VH: QVQLVQSGAEVKKPGASVKVSCKASGYIFTDYFMNWVRQACGQGLEWMGRVNPKNGDITYNQKFRGRVSLTKDTSINTAYMELSGLTSDDTAIYYCAYDGYYDGMDFWGQGTSVTVSS
VL: ELVMTQSPSSLSASVGDRVTITCRANSSVSSNFLHWYQQKPGKAPKLLISSTSNLAFGVPSRFSGTGSGTDFSLTISSLQPEDFAIYYCHQYSGHPFTFGQGTKLEIKR
notes: Humanized IgG1 kappa, HC-41C, from wt/41C-chi-mAb1; also called humanized HC-41C antibody mAb1a; mAbla
B6: the EC50 in assay [2] worked out at 0.16 µg/mL; in assay [3], 0.15 µg/mL; in assay [4], 0.08 µg/mL; in assay [6], 0.08 µg/mL; in assay [7], 0.07 µg/mL; in assay [10], 0.04 µg/mL. The EC50 in assay [11] came out at 0.1 µg/mL. Further, the “Fold shift (HGF)” value came out at 1.9 fold in assay [5], 1.1 fold in assay [8] and 2.5 fold in assay [9].

B7: ADC2 (antibody, human IgG1, kappa, V domains shown)
VH: QVQLQQSGAELVRPGASVKLSCKASGYVFPDYEMHWVKQTCVHGLEWIGAFDPETGDTTYNQNFKGKATLTADKASSTAYMDLRSLTSGDSAVYYCARDYKYLYYYAMDNWGQGTSVTVSS
VL: QIVLTQSPAIMSASLGERVTMTCTASSSITSSYLHWYQQKPGSSPKLWIYSTTNLASGVPGRFSGSGSGTSFSLTISSMEAEDAATYYCHQYRRSPLTFGAGTKLELKR
modifications: vc-seco-DUBA linker-drug on the engineered cysteine at HC position 41 (Kabat); DAR 1.7
Consider B7, for which, in assay [12], the “Efficacy (%), in vitro cytotoxicity, MKN-45, -HGF” value amounted to 76%; the “Efficacy (%), in vitro cytotoxicity, NCI-H596, +HGF” value was 32%; the “Efficacy (%), in vitro cytotoxicity, NCI-H596, -HGF” value turned out to be 6%; the “Efficacy (%), in vitro cytotoxicity, PC-3, +HGF” value stood at 69%. In [12], the “Efficacy (%), in vitro cytotoxicity, PC-3, -HGF” value is 69%; the “IC50 1, in vitro cytotoxicity, PC-3, -HGF” value was 0.05 nM; the “IC50 2, in vitro cytotoxicity, PC-3, -HGF” value turned out to be 84 nM; the “IC50, in vitro cytotoxicity, MKN-45, -HGF” value came to 0.44 nM. Besides, in [12], the “IC50, in vitro cytotoxicity, NCI-H596, +HGF” value was over 10 nM; the “IC50, in vitro cytotoxicity, NCI-H596, -HGF” value is over 10 nM; the “IC50, in vitro cytotoxicity, PC-3, +HGF” value is about 10 nM.
